{
  "source": "the supplement of paper PMC12042874",
  "note": "± gives the uncertainty stated by the source.",
  "data": [
    {"experiment": "amyloid nucleation score (Sup35N fusion, yeast selection) (log enrichment); library NNK3; higher = more nucleation; inactive = no reads after selection", "procedure,_shortened": "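The nucleation score is the DiMSum log enrichment of output over input reads, centred on the mode score of non-aggregating sequences. Only sequences with 100 or more input reads were scored, using Illumina sequencing of input and output plasmid inserts. Psi-negative yeast expressing Sup35N fused to peptides of 20 random codons were induced 24 hours with 100 μM copper sulfate and grown 7 days at 30°C on medium lacking adenine and uracil.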", "values": [
      {"substance": "LAGSCMGLMCWVVDARAVGR", "amyloid nucleation score": "0.06 ± 0.64"},
      {"substance": "PHVLVESLW", "amyloid nucleation score": "inactive"},
      {"substance": "KLDSLPEYFSATLWLDMSVF", "amyloid nucleation score": "inactive"},
      {"substance": "TVLLLGRWYN", "amyloid nucleation score": "1.24 ± 0.14"},
      {"substance": "PCYDWCLQSGR", "amyloid nucleation score": "inactive"},
      {"substance": "QIVRLTSNIPRTAPSWSFH", "amyloid nucleation score": "inactive"},
      {"substance": "WDNLCGTAFHAVN", "amyloid nucleation score": "inactive"},
      {"substance": "GQNSRPGLANTLLYPEVLIR", "amyloid nucleation score": "inactive"},
      {"substance": "SRRSHWFWEPSDTCASFTRP", "amyloid nucleation score": "inactive"},
      {"substance": "THLFRYKTASTDGCNESKAV", "amyloid nucleation score": "inactive"},
      {"substance": "IAHVMYNYQHVTSCNMSSVL", "amyloid nucleation score": "0.726 ± 0.13"},
      {"substance": "TKRKCYPRLVRPGRLKGPSG", "amyloid nucleation score": "inactive"},
      {"substance": "KPSSFNDAIR", "amyloid nucleation score": "inactive"},
      {"substance": "ISIFSIRNMVYNLQVRLVLE", "amyloid nucleation score": "inactive"},
      {"substance": "LCAQGYDLFALCKVYWLREW", "amyloid nucleation score": "inactive"},
      {"substance": "RSYLN", "amyloid nucleation score": "inactive"},
      {"substance": "LRGGKVMITRFVSCSI", "amyloid nucleation score": "inactive"},
      {"substance": "FKRTTMCGDYAVYVTPGTSL", "amyloid nucleation score": "inactive"},
      {"substance": "VLLFYLKVTRASTVGVLSSS", "amyloid nucleation score": "inactive"},
      {"substance": "NGIMLQIRNPSSKLNNLLWF", "amyloid nucleation score": "inactive"},
      {"substance": "RDNLLGLTGNTTGDFTPGTV", "amyloid nucleation score": "inactive"},
      {"substance": "DCCSYRSERA", "amyloid nucleation score": "inactive"},
      {"substance": "AQAVHAEVVQFILYFGESPL", "amyloid nucleation score": "2.47 ± 0.08"},
      {"substance": "QLLHDGNLNVGIFMRYSQGR", "amyloid nucleation score": "1.29 ± 0.093"},
      {"substance": "IGKRIFKLCVMYGYYLHLNF", "amyloid nucleation score": "inactive"},
      {"substance": "VSLGFEFMGFHAGW", "amyloid nucleation score": "1.09 ± 0.15"},
      {"substance": "LLSLFFIHPTATRRTKVSRC", "amyloid nucleation score": "inactive"},
      {"substance": "PSYEAASK", "amyloid nucleation score": "inactive"},
      {"substance": "RYVRCFLYTYKNFFD", "amyloid nucleation score": "inactive"},
      {"substance": "RLATREDHAHLLDHACLVG", "amyloid nucleation score": "inactive"},
      {"substance": "YFTQNSSYVGV", "amyloid nucleation score": "inactive"},
      {"substance": "CYGLSRCTRAEAMCPKG", "amyloid nucleation score": "inactive"},
      {"substance": "GLCSMLASFRTQYSS", "amyloid nucleation score": "inactive"},
      {"substance": "LRKRELCGIPSINAAPGLLG", "amyloid nucleation score": "inactive"},
      {"substance": "TVCLVAITKAPRRCNSQHWD", "amyloid nucleation score": "-0.917 ± 1.9"},
      {"substance": "WRAAIEDASLFIERIHNNSS", "amyloid nucleation score": "inactive"},
      {"substance": "IYSVGYRSS", "amyloid nucleation score": "inactive"},
      {"substance": "FVYILGTMMNRRGFDPWIGD", "amyloid nucleation score": "0.631 ± 0.32"},
      {"substance": "SALTIVVLFG", "amyloid nucleation score": "0.775 ± 0.2"},
      {"substance": "YIWTMWSSSLCVLMGAKGAA", "amyloid nucleation score": "inactive"},
      {"substance": "NVKTGNKPRDTQSRYVLPES", "amyloid nucleation score": "inactive"},
      {"substance": "KFCVVSKTLFNFLTFWFEHG", "amyloid nucleation score": "inactive"},
      {"substance": "SICGKSSCMCVTNVSPLDSQ", "amyloid nucleation score": "0.304 ± 0.21"},
      {"substance": "YRCYVVVSCWIHLNIKWLMY", "amyloid nucleation score": "inactive"},
      {"substance": "RNEDLSA", "amyloid nucleation score": "-0.096 ± 0.66"},
      {"substance": "CHCIYNQCVGFSVCGCRGFG", "amyloid nucleation score": "2.35 ± 0.058"},
      {"substance": "SICIRFF", "amyloid nucleation score": "inactive"},
      {"substance": "NRIFSLTM", "amyloid nucleation score": "inactive"},
      {"substance": "PFWVTVYMDILLVKQQPLSV", "amyloid nucleation score": "inactive"},
      {"substance": "PERWSMPYIPSDLYKCLLNQ", "amyloid nucleation score": "inactive"},
      {"substance": "GPLFRLRMFL", "amyloid nucleation score": "inactive"},
      {"substance": "QSGTLLGLLHQANYLGYAF", "amyloid nucleation score": "inactive"},
      {"substance": "DSMLVISVRVRTCMLGNVVA", "amyloid nucleation score": "inactive"},
      {"substance": "LHSLKHNCVFSAIVGHCFQC", "amyloid nucleation score": "2.11 ± 0.098"},
      {"substance": "MGNAEEIAIHDSSAWVVVAR", "amyloid nucleation score": "inactive"},
      {"substance": "ESWVFRTRDMPGEFTSSVCM", "amyloid nucleation score": "inactive"},
      {"substance": "EVLEFVSNGGMVTEMGP", "amyloid nucleation score": "inactive"},
      {"substance": "RNYNVV", "amyloid nucleation score": "inactive"},
      {"substance": "PYPESVFQWFEYIPFYCSVR", "amyloid nucleation score": "inactive"},
      {"substance": "IDNMAVIYWTVNFVCRVW", "amyloid nucleation score": "1.26 ± 0.085"},
      {"substance": "FVVRIKYTGSDLRLFRMVSF", "amyloid nucleation score": "inactive"},
      {"substance": "NSGWWRVKHNTSQDGSKRSG", "amyloid nucleation score": "inactive"},
      {"substance": "LLIIVYLVWCALIRRGTQPR", "amyloid nucleation score": "inactive"},
      {"substance": "IRIKVRLHVSIYFNIFR", "amyloid nucleation score": "inactive"},
      {"substance": "ERKCLLCNYHMY", "amyloid nucleation score": "inactive"}
    ]}
  ]
}
